The values below come from article PMC3806662.

For this assay, the target named is BiP (human (endogenous in HEK293T)) (UniProt P11021). In words: co-IP.
Chain of UniProt P11021 (P11021 19-654): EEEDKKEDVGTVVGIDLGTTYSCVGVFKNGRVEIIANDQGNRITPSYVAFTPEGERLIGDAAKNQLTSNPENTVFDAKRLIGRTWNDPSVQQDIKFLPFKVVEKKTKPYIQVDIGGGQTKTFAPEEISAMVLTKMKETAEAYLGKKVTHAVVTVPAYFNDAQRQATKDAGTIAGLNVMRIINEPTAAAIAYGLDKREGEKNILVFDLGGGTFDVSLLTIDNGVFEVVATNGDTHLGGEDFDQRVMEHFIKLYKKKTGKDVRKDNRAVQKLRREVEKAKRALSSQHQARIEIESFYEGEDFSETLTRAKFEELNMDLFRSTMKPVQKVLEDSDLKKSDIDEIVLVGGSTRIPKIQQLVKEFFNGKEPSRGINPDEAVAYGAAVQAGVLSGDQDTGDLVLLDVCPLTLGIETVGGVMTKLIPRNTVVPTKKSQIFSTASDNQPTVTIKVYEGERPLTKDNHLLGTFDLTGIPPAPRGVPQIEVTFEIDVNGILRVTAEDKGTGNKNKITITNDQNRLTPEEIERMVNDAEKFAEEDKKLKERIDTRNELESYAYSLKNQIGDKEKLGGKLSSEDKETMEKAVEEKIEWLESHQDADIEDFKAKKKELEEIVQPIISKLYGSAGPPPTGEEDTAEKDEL

“QQQ mutant of NHK (from UniProt P01009 25-418) (natural protein)” gave a fold co-precipitated relative to NHK of 2 fold.
